For orientation: Kd means the free concentration of one partner at which half of the binding sites on the other are occupied at equilibrium, for simple one-to-one binding. The low end stands for higher affinity, the high end for lower affinity.

The target in the experiment is human CD47 on CCRF-CEM cells (human) (UniProt Q08722). The experiment can be described thus: flow cytometry on CCRF-CEM cells, MFI against concentration, one site specific binding with Hill slope. In general terms: In flow cytometry, cells or beads pass a laser one at a time.

B1: B6H12, mu anti-hu CD47 (antibody, from another filing, V domains shown)
VH: EVQLVESGGDLVKPGGSLKLSCAASGFTFSGYGMSWVRQTPDKRLEWVATITSGGTYTYYPDSVKGRFTISRDNAKNTLYLQIDSLKSEDTAIYFCARSLAGNAMDYWGQGTSVTVSS
VL: DIVMTQSPATLSVTPGDRVSLSCRASQTISDYLHWYQQKSHESPRLLIKFASQSISGIPSRFSGSGSGSDFTLSINSVEPEDVGVYYCQNGHGFPRTFGGGTKLEIK
For the molecule B1, the Kd was 0.016 µM.
